According to US9688764B2, “Methods of treating breast cancer by administering anti-human prolactin receptor (PRLR) antibodies” (REGENERON PHARMACEUTICALS, INC., priority 2013, dated 2017):
Where two headings read alike, the source gives them in different places.

Legend:
[1] = system: MCF7/hPRLR (MCF7/PRLR) cells; assay: Cell viability (cell kill) assay, nuclear counts; assay type: cell-based, human
Description: (§1) PRLR-overexpressing cells, including HEK293, PC3, MCF7 and NCI-N87, were generated to assess the ability of anti-PRLR conjugated antibodies to reduce cell viability. For comparative purposes, PC3 and T47D cells with overexpressed ErbB2 were also generated, as well as an MCF7 cell line over-expressing both hPRLR and hErbB2. Briefly, Lipofectamine® 2000-mediated transfection methodology was utilized to generate HEK293 cells expressing human PRLR (HEK293/hPRLR) or human ErbB2 (HEK293/hErbB2). Lipofectamine LTX with Plus Reagent was used to generate PC3 cells expressing human PRLR (PC3/hPRLR) or human ErbB2 (PC3/hErbB2). Lentiviral-mediated transduction was utilized to generate MCF7 cells expressing human PRLR (MCF7/hPRLR), NCI-N87 cells expressing human PRLR (NCI-N87/hPRLR), T47D cells over-expressing human ErbB2 (T47D/hErbB2), and MCF7 cells expressing both human PRLR and human ErbB2 (MCF7/hPRLR/hErbB2). All lines were selected for at least two weeks in complete growth media plus appropriate selection reagents. Stably expressing populations were enriched for PRLR expression via FACS using the anti PRLR antibody Control I.
(§2) Next, the ability of anti-PRLR-DM1 antibody-drug conjugates (i.e., anti-PRLR antibodies conjugated to DM1 via a non-cleavable linker [SMCC]) to reduce cell viability was determined using in vitro cell based assays. Cells were seeded in PDL-coated 96 well plates at 1500 to 10000 cells per well in complete growth media and allowed to grow overnight. For cell viability curves, ADCs or free DM1 (as the methyl disulfide derivative DM1-SMe) were added to the cells at final concentrations ranging from 500 nM to 5 pM and incubated for 3 days. The 293, PC3 and T47D cells were incubated with CCK8 (Dojindo, Rockville, Md.) for the final 1-3 hours and the absorbance at 450 nm (OD450) was determined on a Flexstation3 (Molecular Devices, Sunnyvale, Calif.). MCF7 cells were treated with Hoechst 33342 nuclear stain while being fixed with 4% formaldehyde. Images were acquired on the ImageXpress micro XL (Molecular Devices, Sunnyvale, Calif.) and nuclear counts were determined via Columbus image analysis software (Perkin Elmer, Shelton, Conn.). Background OD450 values (PC3, 293, and T47D) or nuclear counts (MCF7) from digitonin (40 nM) treated cells was subtracted from all wells and viability was expressed as a percentage of the untreated controls. IC50 values were determined from a four-parameter logistic equation over a 10-point response curve (GraphPad Prism).
(§3) Finally, the potency of anti-PRLR antibodies conjugated to DM1 via the non-cleavable linker SMCC was compared to the cell killing potency of anti-PRLR antibodies conjugated to MMAE via the cleavable linker: mc-vc-PAB (available from Concortis, San Diego, Calif.). Cells used in this experiment were PC3, PC3/hPRLR, MCF7/ATCC and MCF7/PRLR.
(§4) Additional toxins (DM4, MeNHC3-May, and MMD) conjugated to anti-PRLR antibodies were also tested in T47D and MCF7/hPRLR cell lines, and results are summarized in Tables 19 (293 and T47D cell killing) and 20 (MCF7/ATCC and MCF7/PRLR cell killing). (ND=not detected).

HEK293 (293) cells = assay: Cell viability (cell kill) assay; assay type: cell-based
Description: as §1, §2

MCF7 (MCF7/ATCC) cells = assay: Cell viability (cell kill) assay, nuclear counts; assay type: cell-based; conditions: MCF7/ATCC
Description: as §1, §2, §3, §4

T47D cells = assay: Cell viability (cell kill) assay; assay type: cell-based; conditions: T47D; for IC50: read-out: IC50
Description: as §2
Additionally, the impact of the PRLR ligand, PRL, on PRLR-SMCC-DM1 cell kill in T47D cells was assessed. T47D cells were incubated simultaneously with PRL (15 nM) and either a non-blocking anti PRLR antibody (H1H6782P) or a receptor blocking antibody (H1H6958N2).
as §4

PC3/hPRLR cells = assay: Cell viability (cell kill) assay; assay type: cell-based, human; conditions: PC3/hPRLR; Table 18
Description: as §1, §2, §3

Molecule | % Kill ([1]; Table 20) [%] | IC50 ([1]; Table 20) [nM] | % Kill (HEK293 (293) cells; 293, Table 19) [%] | IC50 (HEK293 (293) cells; 293, Table 19) [nM] | % Kill (MCF7 (MCF7/ATCC) cells; Table 20) [%] | IC50 (MCF7 (MCF7/ATCC) cells; Table 20) [nM] | % Kill (T47D cells; Table 19) [%] | IC50 (T47D cells; Table 19) [nM] | % Kill ([1]; Table 18) [%] | IC50 ([1]; Table 18) [nM] | % Kill (PC3/hPRLR cells) [%] | IC50 (PC3/hPRLR cells) [nM] | % Kill (MCF7 (MCF7/ATCC) cells; Table 18) [%] | IC50 (MCF7 (MCF7/ATCC) cells; Table 18) [nM] | IC50 (HEK293 (293) cells; HEK293, Table 13, + 15 nM PRL) [nM] | IC50 (HEK293 (293) cells; HEK293, Table 13, without PRL) [nM] | IC50 (T47D cells; Table 13, + 15 nM PRL) [nM] | IC50 (T47D cells; Table 13, without PRL) [nM]
COc1cc2cc(c1Cl)N(C)C(=O)CC(OC(=O)C(C)N(C)C(=O)CCSSC)C1(C)OC1C(C)C1CC(O)(NC(=O)O1)C(OC)C=CC=C(C)C2 (stereo not drawn) [Free DM1 (Me-SS-May)] | 80 | 0.8 | 95 | 1.2 | 80 | 1.3 | 100 | 1.5 |  |  |  |  |  |  |  |  |  | 
H1H6953N-mc-VC-PAB-MMAE (conjugate) VH: EVQLLESGGGLVQPGGTLRLSCAASGFTFSAYAMSWVRQAPGKGLEWVSSINVRAGDTYYADSVKGRFTISRDNSKNTLFLLMNSLRAEDTAAYYCAKARYSSNWGFDFWGQGTLVTVSS VL: DIVMTQSPDSLTVSLGARTTINCQSSQTILHSSNNHNYLAWYQQKPGLPPKLLIYWSSTRESGVPDRFSGSGSGTDFTLTISSLQAEDVAIYYCQQYSNTPYTFGQGTKLEIN | 85 | 0.1 |  |  | 40 | 150 | 80 | 1 | 85 | 0.1 | 80 | 0.2 | 42 | 150 |  |  |  | 
H1H6953N-mc-VC-PAB-MMD (conjugate) VH: EVQLLESGGGLVQPGGTLRLSCAASGFTFSAYAMSWVRQAPGKGLEWVSSINVRAGDTYYADSVKGRFTISRDNSKNTLFLLMNSLRAEDTAAYYCAKARYSSNWGFDFWGQGTLVTVSS VL: DIVMTQSPDSLTVSLGARTTINCQSSQTILHSSNNHNYLAWYQQKPGLPPKLLIYWSSTRESGVPDRFSGSGSGTDFTLTISSLQAEDVAIYYCQQYSNTPYTFGQGTKLEIN | 90 | 0.2 | 70 |  | 50 |  | 90 | 1 |  |  |  |  |  |  |  |  |  | 
H1H6953N-mc-VC-PAB-MeNHC3-May (conjugate) VH: EVQLLESGGGLVQPGGTLRLSCAASGFTFSAYAMSWVRQAPGKGLEWVSSINVRAGDTYYADSVKGRFTISRDNSKNTLFLLMNSLRAEDTAAYYCAKARYSSNWGFDFWGQGTLVTVSS VL: DIVMTQSPDSLTVSLGARTTINCQSSQTILHSSNNHNYLAWYQQKPGLPPKLLIYWSSTRESGVPDRFSGSGSGTDFTLTISSLQAEDVAIYYCQQYSNTPYTFGQGTKLEIN | 80 | 0.2 |  |  | 60 | 150 | 90 | 1 |  |  |  |  |  |  |  |  |  | 
H1H6782P-SMCC-DM1 (conjugate) VH: EVQLVESGGGLVQPGRSLRLSCAASGFTFDDYAMHWVRQAPGKGLEWVSGIIWNSGHIGYGDSVKGRFTISRDNAKKSLYLQMNSLRAEDTALYYCARDSGRYQSYFDYWGQGTLVTVSS VL: DIQMTQSPSTLSASVGDRVTITCRASHIISSWLAWYQQKPGKAPKVLIFKASSLESGVPSRFSGSGSGTEFTLTISSLQPDDFATYYCQQYNTYSRTFGQGTKVEIK | 80 | 0.3 | 80 | 120 | 70 | 250 | 100 | 3 |  |  |  |  |  |  | 70 | 90 | 2 | 1
H1H6782P-mc-VC-PAB-MMD (conjugate) VH: EVQLVESGGGLVQPGRSLRLSCAASGFTFDDYAMHWVRQAPGKGLEWVSGIIWNSGHIGYGDSVKGRFTISRDNAKKSLYLQMNSLRAEDTALYYCARDSGRYQSYFDYWGQGTLVTVSS VL: DIQMTQSPSTLSASVGDRVTITCRASHIISSWLAWYQQKPGKAPKVLIFKASSLESGVPSRFSGSGSGTEFTLTISSLQPDDFATYYCQQYNTYSRTFGQGTKVEIK | 90 | 0.3 | 70 |  | 50 | 200 | 90 | 2 |  |  |  |  |  |  |  |  |  | 
H1H6782P-mc-VC-PAB-MeNHC3-May (conjugate) VH: EVQLVESGGGLVQPGRSLRLSCAASGFTFDDYAMHWVRQAPGKGLEWVSGIIWNSGHIGYGDSVKGRFTISRDNAKKSLYLQMNSLRAEDTALYYCARDSGRYQSYFDYWGQGTLVTVSS VL: DIQMTQSPSTLSASVGDRVTITCRASHIISSWLAWYQQKPGKAPKVLIFKASSLESGVPSRFSGSGSGTEFTLTISSLQPDDFATYYCQQYNTYSRTFGQGTKVEIK | 80 | 0.2 | 90 |  | 50 | 250 | 90 | 2 |  |  |  |  |  |  |  |  |  | 
H1H6958N2-SPDB-DM4 (conjugate) VH: QVQLVESGGGVVQPGRSLRLSCGASGFTFRNYGMQWVRQGPGKGLEWVTLISFDGNDKYYADSVKGRFTISRDNSKNTLFLQMNSLRTEDTAVYYCARGGDFDYWGQGTLVTVSS VL: DIQMTQSPSSLSASVGDRVTITCRASQDIRKDLGWYQQKPGKAPKRLIYAASSLHSGVPSRFSGSGSGTEFTLTISSLQPEDFATYYCLQHNSYPMYTFGQGTKLEIK | 90 | 0.8 |  |  | 80 | 25 | 100 | 1 |  |  |  |  |  |  |  |  |  | 
H1H6765P-SMCC-DM1 (conjugate) VH: EVQLVESGGGVVRPGGSLRLSCVGSGFSFDDHGMNWVRQGPGKGLEWVSGFNWNGGSTNYAESVKGRFTISRDNARNSLFLQMNSLRAEDTALYYCVRGRSGWFNDAFDVWGPGTMVTVSS VL: EIVLTQSPGTLSLSPGERATLSCRASQTINSNYLAWYRQKPGQTPRLLIYGTSSRATGIPDRFSGSGSGTDFSLTISRLEPEDFAVFYCQQYAGLPTFGPGTKVDIK | 90 | 0.3 | 100 | 85 | 70 | 150 | 90 | 1 | 81 | 0.1 | 83 | 0.3 | 71 | 90 |  |  |  | 
H1H6975P-SMCC-DM1 (conjugate) VH: EVHLVESGGGLVQPGGSLRLSCAASGFTFSSYEMNWVRQTPGKGLEWISHISSRSVIIYYADSVKGRFTISRDNAKNSLFLQMNSLRAEDTAVYFCAGITIFGIPEYWGQGTLVTVSS VL: EIVLTQSPATLSLSPGERATLSCRASQSVSSYFAWYQQKPGQAPRLLIYDASSRATGIPTRFSGSGSGTDFTLTISSLEPEDFAVYYCQQRSSWPITFGQGTRLEIK | 80 | 0.2 | 90 | 80 | 70 | 200 | 100 | 2 |  |  |  |  |  |  |  |  |  | 
H1H6975P-mc-VC-PAB-MMD (conjugate) VH: EVHLVESGGGLVQPGGSLRLSCAASGFTFSSYEMNWVRQTPGKGLEWISHISSRSVIIYYADSVKGRFTISRDNAKNSLFLQMNSLRAEDTAVYFCAGITIFGIPEYWGQGTLVTVSS VL: EIVLTQSPATLSLSPGERATLSCRASQSVSSYFAWYQQKPGQAPRLLIYDASSRATGIPTRFSGSGSGTDFTLTISSLEPEDFAVYYCQQRSSWPITFGQGTRLEIK | 90 | 0.2 | 80 |  | 50 | 150 | 90 | 3 |  |  |  |  |  |  |  |  |  | 
